B1: A1-WT (designed binder)
chain: MRGSHHHHHHGSMASGDLENEYAQLEREVRSLEDEAAELEQKVSRLKNEIEDLAEIGDLNNTSGIRRPAAKLN
notes: Expressed in E. coli from pQE-A1 with an N-terminal His-tag; Forms dimeric coiled coils; entered as the single chain; also called wild-type A1
B2: FA1-92 (designed binder)
chain: B1 chain
modifications: leucines (eight per chain) replaced by 5,5,5-trifluoroleucine to 92% by amino acid analysis; mixed population of (2S,4S) and (2S,4R) diastereomers
notes: Expressed in an E. coli leucine auxotroph in medium with trifluoroleucine; The sample is heterogeneous; its main MALDI peak of 8736 corresponds to 8 substitutions; also called 92% fluorinated A1

Tests used:
[1] = molecular target: the molecule itself; test: CD thermal unfolding, global two-state fit of the monomer to dimer transition, 1 M standard state
Method: Circular Dichroism (CD) Analysis. CD spectra were recorded on an Aviv 62DS spectropolarimeter (Lakewood, N.J.) in PBS buffer, pH 7.4. All peptide concentrations were determined by amino acid analysis of a stock solution (5 mg/ml). Experiments were performed in a rectangular cell with pathlength of 1 cm for low concentration samples and pathlength of 1 mm for high concentration samples. Spectra were scanned from 250 nm to 200 nm with data taken every 1 nm. The temperature of the solution was maintained by a thermostatically controlled cuvette holder (HP model 89101A). Temperature scans were performed from 0° C. to 100° C. in 1° C. steps. Three scans were performed on a single sample and averaged. Each data point was collected after 30 seconds of thermal equilibration at the desired temperature. Urea titration scans were performed manually starting with the 8 M concentrated sample followed by serial dilution to the desired urea concentration. At each concentration, the sample was allowed to equilibrate for 5 min before recording the CD signal.

[2] = molecular target: the molecule itself; test: CD thermal unfolding, global two-state fit of the monomer to dimer transition; difference against A1-WT at 37 °C

Protein | ΔG° (37° C.) [1] [kcal/mol] | ΔΔG° [2] [kcal/mol]
B1 | -10.7 | –
B2 | -13.1 | -2.4

— patent US20140127777A1 (CALIFORNIA INSTITUTE OF TECHNOLOGY, published 2014)
